# Target: Recombinant Aβ1-42 (rAβ1-42 peptides) in the Thioflavin T fibril formation assay (UniProt P05067)
# Test: cell-based or functional assay
# Recombinant Aβ1-42 (rAβ1-42 peptides) in the Thioflavin T fibril formation assay, sequence (P05067 672-713 limits assumed): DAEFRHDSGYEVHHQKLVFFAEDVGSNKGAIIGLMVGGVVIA
substance,measurement,value
control anti-rhodopsin 1D4 antibody (Abcam),T50 (time in minutes for 50% inhibition of fibril formation),25.9 min

# Reference: US20160251419A1
